“Also recorded” adds a separate entry of the source.
What was measured:
[1] = biological target: T1, wild type RhoA (Homo sapiens, UniProt P61586); experiment: Yeast two-hybrid, N-terminal region of PKN with wild type RhoA; format: binding; conditions: yeast L40, histidine requirement
T1 construct: expressed in transfected cells; host or cells: yeast strain L40
From the text: (§1) According to a method described in A. B. Vojetk et al. Cell 74, 205-214 (1993), wild type H-Ras, wild type RhoA with C-terminal CAAX structure removed (S. Ando et al. Jikken Igaku 11, 1973-1980 (1993)), and variant RhoA^Val14cDNA fragment, were introduced into pBTM116 vector (A. B. Vojetk et al, ibid.) to construct vectors (designated as pBTM116-RasWT, pBTM116-RhoWT, and pBTM116-Rho^Val14), for expression thereof and LexA as fusion protein in yeast cells, which were then transformed into yeast (strain L40).
(§2) cDNA in N-terminal region (the amino acid sequence 7-155 in SEQ ID NO: 1) of PKN was introduced into BamHI site of pACT vector ([…] Library Kit, manufactured by Clontech Laboratories, Inc.) to construct a vector (designated as pACTIIHK-PKN-N) for expression thereof and GAL4 as fusion protein in yeast cells. The cDNA fragment, used here, corresponding to the N-terminal region of PKN was prepared as described in Example 4 (1).
(§3) Yeast transformed with pBTM116-RasWT, pBTM116-RhoWT, and pBTM116-Rho^Val14 was further transformed with pACTIIHK-PKN-N. Transformants were screened based on histidine requirement (A. B. Vojetk et al, Cell 74, 205-214 (1993).

[2] = biological target: T2, variant RhoA^Val14 (Homo sapiens, UniProt P61586, G14V); experiment: Yeast two-hybrid, N-terminal region of PKN with RhoA^Val14; format: binding; conditions: yeast L40, histidine requirement
T2 construct: expressed in transfected cells; host or cells: yeast strain L40
From the text: as §1, §2, §3

[3] = biological target: T3, RhoA^Val14 CLVL^− (Homo sapiens, UniProt P61586, G14V); experiment: Yeast two-hybrid, truncated PKN with RhoA^Val14CLVL^−; format: binding; conditions: yeast L40
T3 construct: expressed in transfected cells; host or cells: yeast strain L40
From the text: The cDNA fragments encoding various length of human PKN were inserted into the vector pBTM116 (Example 7) in frame with the upstream LexA DNA-binding domain sequences or the vector pVP16 (Example 7) in frame with the upstream VP16 transcription activation domain sequences. The cDNA fragments encoding human RhoA, RhoA^Val14, and RhoA^Ala37 were obtained by digesting pGEX-RhoA, pGEX-RhoA^Val14, and pGEX-RhoA^Ala37 (Example 1) with restriction enzymes, respectively, then cloned into pBTM116 and pVP16.
The expression plasmids were transfected into yeast L40 cells and plated on semi-solid media lacking tryptophan and leucine. Interaction was examined using a filter lift assay for the β-galactosidase activity in the same manner as in Example 6. […]

[4] = test system: α-actinin (HuActSkl); experiment: Yeast two-hybrid, regions of PKN with HuActSkl; format: binding, human
Protocol: Schemes of the fusion constructs for human PKN, human skeletal muscle type α-actinin (HuActSkl , designated in (Beggs, A., et al., J. Biol. Chem. 267, 9281-9288 (1992)) and non-skeletal muscle type α-actinin (HuActNm, designated in (Beggs, A., et al., J. Biol. Chem. 267, 9281-9288 (1992)) used in this study are shown in FIGS. 41 and 42. Screening of proteins, which bind to the N-terminal region of human PKN (the amino acid sequence 1-540, this region being designated as “PKNNl”), was performed as described in Example 6. Primary positive clones were recovered and retransfected into the original yeast host strain YGH1 (a, ura3-52, his3-200, ade2-101, lys2-801, trpl-901, leu2-3, Can^r, gal4-542, gal80-538, LYS2::gal1uas-gal1tala-HIS3, URA3::gall-lacZ) in combination with the Gal4bd-PKN or the Gal4bd-p53 tumor suppresser. Plasmids that activated marker expression only in the presence of PKN were analyzed further.
The two-hybrid methods was employed to identify the region of PKN that interacted with HuActSkl , and this region was compared with the binding site for RhoA, which binds to PKN, in vitro and in vivo. […] This region corresponds to the second leucine zipperlike sequence and the N-terminal region adjacent thereto, which is conserved through evolution in vertebrates (Mukai, H., et al., Biochim. Biophys. Acta 1261, 296-300 (1995)). […]

[5] = biological target: T4, binding of PKN to GTPγS.GST-RhoA (Homo sapiens, UniProt P61586); experiment: Inhibition of binding between in vitro translated PKN and GTPγS.GST-RhoA by synthetic peptides; conditions: concentration-dependent
T4 construct: made in house; PKN 1-474: in vitro translation
Protocol: A protein corresponding to the amino acid sequence 1-474 in SEQ ID NO: 1) was prepared by in vitro translation. GTPγS or GDP.GST-RhoA (15 nM) was incubated with PKN (1.5 μl) prepared by in vitro translation in a total volume of 200 μl of binding buffer (20 mM Tris/HCl at pH 7.5, 1 mM EDTA, 0.5 mM DTT, 5 mM MgCl2 and 1 μg/ml leupeptin) for 60 min at 4° C. Then 40 μl of glutathione-Sepharose 4B (Pharmacia Biotech) preincubated in binding buffer containing 10 mg/ml E. coli extracts to block non-specific binding was added, and the mixture was rotated for 30 min at 4° C. Unbound proteins were removed by four washes with binding buffer containing 0.2% Nonidet P-40 and 50 mM NaCl, and by two washes with binding buffer. Specifically bound proteins were eluted with binding buffer containing 10 mM reduced glutathione and subjected to SDS-PAGE, and the gel was subjected to autoradiography.
Synthetic peptide fragments for potential RhoA binding region of PKN were synthesized with an automated peptide synthesizer (Applied Biosystems, model 431). An experiment using synthetic peptides wes carried out using the peptides in various concentrations in 200 μl of binding buffer.

[6] = test system: PKN in Swiss 3T3 cells; format: cell-based; conditions: 200 ng/ml for 10 min
[7] = biological target: T5, binding of full-length α-actinin (HuActSkl) to GST-PKNN1 (Homo sapiens, UniProt P35609); experiment: Effect of PI4,5P2 on in vitro binding between α-actinin and PKN
T5 construct: 2 μl of in vitro translated full-length HuActSkl was mixed with 5 μg of GST-PKNN1 fusion protein; made in house; host or cells: HuActSkl: rabbit reticulocyte lysate; GST-PKNN1: E. coli
Protocol: For analysis of the effect of phosphatidylinositol 4,5 bisphosphate (PI4, 5P2) (Boehringer Mannheim) on the binding between α-actinin and PKN, 2 μl of in vitro translated full-length HuActSkl was mixed with 5 μg of GST-PKNN1 fusion protein or with 25 μg of GST alone in 400 μl of buffer P (20 mM Tris/HCl at pH 7.5, 0.5 mM DTT, 120 mM NaCl, 1 mM EDTA) and incubated for 1 hr at room temperature with or without PI4, 5P2. After addition of 25 μl of glutathione-Sepharose 4B pretreated with E. coli extract, the binding reaction was continued for additional 30 min at 4° C. The glutathione-Sepharose 4B was then washed four times in buffer P containing 0.01% Triton X-100. Bound proteins were eluted with GST elution buffer and were subjected to SDS-PAGE. The binding was visualized and quantitated by an imaging analyzer (FUJI BAS1000).

Which results are given for “N-terminal region (amino acids 7-155) of PKN: amino acid sequence 7-155 in SEQ ID NO: 1 expressed as GAL4 fusion protein in yeast”?
binding to wild type RhoA [1]: binds; binding to variant RhoA^Val14 [2]: binds

With “amino acid sequence 1-538: truncated human PKN, amino acid sequence 1-538 in SEQ ID NO: 1, two-hybrid fusion” as the substance, how does the “interaction with RhoA^Val14 CLVL^− (β-galactosidase filter assay)” value [3] read?
Its value is “interacted”.

How did the “interaction with α-actinin in two-hybrid system” value [4] turn out when “amino acid sequence 33-111: truncated human PKN, amino acid sequence 33-111 in SEQ ID NO: 1, Rho protein-binding region” was run?
Its value is “hardly interacted”.

And the “interaction with RhoA^Val14 CLVL^− (β-galactosidase filter assay)” value [3]?
The value was “interacted”.

How did the “inhibition of binding of PKN to GTPγS.GST-RhoA” value (“inhibition of binding of PKN” below) [5] turn out when “amino acid sequence 74-93: synthetic peptide fragment corresponding to the amino acid sequence 74-93 in SEQ ID NO: 1 (ELLLRGSSRRLDLLHQQLQE; UniProt Q16512 74-93, looked up, fragment)” was run?
Its value is “inhibited the binding”.

With “amino acid sequence 82-103: synthetic peptide fragment corresponding to the amino acid sequence 82-103 in SEQ ID NO: 1 (RRLDLLHQQLQELHAHVVLPDP; UniProt Q16512 82-103, looked up, fragment)” as the substance, how does the “inhibition of binding of PKN” value [5] read?
The value was “excellent inhibitory activity; also recorded: inhibited the binding”.

For “amino acid sequence 94-113: synthetic peptide fragment corresponding to the amino acid sequence 94-113 in SEQ ID NO: 1 (LHAHVVLPDPAATHDGPQSP; UniProt Q16512 94-113, looked up, fragment)”, which “inhibition of binding of PKN” value [5] is on record?
The value was “inhibited the binding”.

With lysophosphatidic acid [LAP] as the substance, how does the “stimulation of autophosphorylation of PKN” value [6] read?
The value was “twice”.

How did the “effect on binding of full-length α-actinin to PKN” value ([7]; 10 μM) turn out when “phosphatidylinositol 4,5 bisphosphate [PI4, 5P2]” was run?
Its value is “stimulated the binding”.

What about the “concentration up to which binding activity was elevated” value ([7]; decreased at higher concentrations up to 100 μM) of the same substance?
Its value is 2.5 to 10 µM.
